For five substances, stoichiometry N results are on record in publication PMC6708749.

What all share (test): SEC
For orientation: SEC sorts molecules by how far they enter the pores of the column.

Assay [1] addresses ELIC-α1GABAAR chimera, W246L mutant (Erwinia chrysanthemi | human).
Assay [2] deals with ELIC-α1GABAAR chimera, Q242L mutant (Erwinia chrysanthemi | human).
For assay [3], the target named is ELIC-α1GABAAR chimera, Q242W mutant (Erwinia chrysanthemi | human).
The target in assay [4] is ELIC-α1GABAAR chimera, WT (Erwinia chrysanthemi | human).

In general, stoichiometry N refers to a count of units in the complex or per binding partner.

In assay [1], ELIC-α1GABAAR chimera, W246L mutant showed a stoichiometry N of 5.
ELIC-α1GABAAR chimera, Q242L mutant: the stoichiometry N in assay [2] came to 5.
As to ELIC-α1GABAAR chimera, Q242W mutant, the stoichiometry N in assay [3] was determined as 5.
The substance ELIC-α1GABAAR chimera, WT showed a stoichiometry N in assay [4] of 5.
In turn, ELIC-β3GABAAR chimera showed a stoichiometry N in assay [4] of 5.
